Each block holds one binder with its values, some of them ahead of it.
Assays:
[1] = target: T1, PD-L1 mutant A121D (mouse PD-L1-mCherry fusion) (mouse, UniProt Q9EP73 19-290); assay: microbead FACS binding assay: protein A microbeads loaded with Fc fusion, HEK 293 cells displaying the PD-L1-mCherry mutant
T1 construct: whole, on cells; not shown: C-terminal mCherry (Clontech N1 mCherry vector)
Protocol: (§1) PD-L1 mCherry mutant constructs were transiently transfected into HEK 293S cells and subsequently challenged with protein A microbeads (Milltenyi) pre-saturated with a 4:1 mixture of PD-1 Fc-fusion and FITC-Fc protein. A total Fc protein to bead ratio of 5 ug/10 uL microbeads was utilized on the basis of a previous report from Genentech (16). The FITC-Fc served to make the otherwise non-fluorescent microbeads show green fluorescence. For each titration experiment, 500 μL of protein A microbeads were loaded with a mixture of 10 μg fluorescein isothiocyanate (FITC)-Fc and 40 μg of either PD-1-Fc or B7-1-Fc protein in a total volume of 5 mL 1× phosphate buffered saline (PBS). The beads were incubated overnight (˜16 hours) at 4° C. Loaded beads were stored for up to two weeks prior to use. Initial experiments determined that 75 μL of the loaded beads were sufficient to saturate 150,000 cells transfected with wild type PD-L1, (transfection efficiency being consistently 60-70%). For titration experiments, sets of wild type and mutant PD-L1 constructs were transfected in 24-well tissue culture plates containing 1 mL of suspension HEK-293 cells. Three days post transfection cells were counted, diluted to 1×10⁶ cell/mL with 1×PBS with 2% BSA. 150K cells (150 μL) were transferred to Eppendorf tubes, and 75 μL of loaded microbeads added along with an additional 100 μL 1×PBS with 2% bovine serum albumin (BSA). Reactions were mixed end over end for 1 hour at 4° C., 4′,6-diamidino-2-phenylindole (DAPI) was added and samples were immediately analyzed by flow cytometry on a BD Aria III cytometer. Data were analyzed by gating first for live cells (DAPI negative) then for mCherry positive cells (PD-L1 expression). The percentage of mCherry positive cells that were FITC positive (microbeads bound) was used as “percent bound”. For each experiment, the percent bound was normalized to wild type binding.
(§2) These cells were probed by flow cytometry for their ability to bind either FITC-loaded microbeads decorated with wild type PD-1 Ig-fusion or wild type B7-1 Ig-fusion proteins (FIG. 7B).

[2] = target: T2, PD-L1 mutant L53R (mouse PD-L1-mCherry fusion) (mouse, UniProt Q9EP73 19-290); assay: as above
T2 construct: whole, on cells; not shown: C-terminal mCherry (Clontech N1 mCherry vector)
T2 sequence (Q9EP73 19-290 L53R): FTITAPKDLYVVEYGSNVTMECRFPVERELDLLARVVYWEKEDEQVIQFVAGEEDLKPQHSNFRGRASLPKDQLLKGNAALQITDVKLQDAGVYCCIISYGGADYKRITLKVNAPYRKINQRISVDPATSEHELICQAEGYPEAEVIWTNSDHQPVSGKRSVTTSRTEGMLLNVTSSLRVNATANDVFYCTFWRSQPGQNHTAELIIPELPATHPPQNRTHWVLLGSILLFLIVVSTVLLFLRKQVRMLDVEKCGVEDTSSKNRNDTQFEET
Protocol: as §1, §2

[3] = target: T3, PD-L1 mutant I116R (mouse PD-L1-mCherry fusion) (mouse, UniProt Q9EP73 19-290); assay: as above
T3 construct: whole, on cells; not shown: C-terminal mCherry (Clontech N1 mCherry vector)
T3 sequence (Q9EP73 19-290 I116R): as the sequence (Q9EP73 19-290 L53R) above, with R35L, I98R counted along it
Protocol: as §1, §2

[4] = target: T4, PD-L1 mutant I115D (mouse PD-L1-mCherry fusion) (mouse, UniProt Q9EP73 19-290); assay: as above
T4 construct: whole, on cells; not shown: C-terminal mCherry (Clontech N1 mCherry vector)
T4 sequence (Q9EP73 19-290 I115D): as the sequence (Q9EP73 19-290 L53R) above, with R35L, I97D counted along it
Protocol: as §1, §2

[5] = target: T5, PD-L1 mutant G120R (mouse PD-L1-mCherry fusion) (mouse, UniProt Q9EP73 19-290); assay: as above
T5 construct: whole, on cells; not shown: C-terminal mCherry (Clontech N1 mCherry vector)
T5 sequence (Q9EP73 19-290 G120R): as the sequence (Q9EP73 19-290 L53R) above, with R35L, G102R counted along it
Protocol: as §1, §2

[6] = target: T6, PD-L1 mutant A121R (mouse PD-L1-mCherry fusion) (mouse, UniProt Q9EP73 19-290); assay: as above
T6 construct: whole, on cells; not shown: C-terminal mCherry (Clontech N1 mCherry vector)
T6 sequence (Q9EP73 19-290 A121R): as the sequence (Q9EP73 19-290 L53R) above, with R35L, A103R counted along it
Protocol: as §1, §2

[7] = target: T7, PD-L1 mutant G119R (mouse PD-L1-mCherry fusion) (mouse, UniProt Q9EP73 19-290); assay: as above
T7 construct: whole, on cells; not shown: C-terminal mCherry (Clontech N1 mCherry vector)
T7 sequence (Q9EP73 19-290 G119R): as the sequence (Q9EP73 19-290 L53R) above, with R35L, G101R counted along it
Protocol: as §1, §2

[8] = target: T8, PD-L1 mutant D122R (mouse PD-L1-mCherry fusion) (mouse, UniProt Q9EP73 19-290); assay: as above
T8 construct: whole, on cells; not shown: C-terminal mCherry (Clontech N1 mCherry vector)
T8 sequence (Q9EP73 19-290 D122R): as the sequence (Q9EP73 19-290 L53R) above, with R35L, D104R counted along it
Protocol: as §1, §2

[9] = target: T9, PD-L1 mutant L53D (mouse PD-L1-mCherry fusion) (mouse, UniProt Q9EP73 19-290); assay: as above
T9 construct: whole, on cells; not shown: C-terminal mCherry (Clontech N1 mCherry vector)
T9 sequence (Q9EP73 19-290 L53D): as the sequence (Q9EP73 19-290 L53R) above, with R35D counted along it
Protocol: as §1, §2

[10] = target: T10, PD-L1 mutant G120A (mouse PD-L1-mCherry fusion) (mouse, UniProt Q9EP73 19-290); assay: as above
T10 construct: whole, on cells; not shown: C-terminal mCherry (Clontech N1 mCherry vector)
T10 sequence (Q9EP73 19-290 G120A): as the sequence (Q9EP73 19-290 L53R) above, with R35L, G102A counted along it
Protocol: as §1, §2

[11] = target: T11, wild-type mouse PD-L1 mCherry (full-length mouse PD-L1 with C-terminal mCherry, on HEK 293 cells) (mouse, UniProt Q9EP73 19-290); assay: FACS competition: mPD-1 mIgG2a titrated (0.01-250 nM dimer) against 5 nM mB7-1 hIgG1 (competitor) on HEK 293 cells expressing mPD-L1 mCherry; one-site competition fit, three experiments
T11 construct: whole, on cells; also called wild type PD-L1; mPD-L1 mCherry; not shown: C-terminal mCherry (Clontech N1 mCherry vector)
T11 sequence (Q9EP73 19-290): as the sequence (Q9EP73 19-290 L53R) above, with R35L counted along it
Excerpt: A mB7-1 hIgG1 Fc fusion construct was cloned which used the same erythropoietin (EPO) leader, mB7-1 ecto domain boundaries and linker sequence as the original mIgG2a construct described above. This construct was transiently expressed in HEK 293 cells and purified as described above for the other Fc fusion proteins used. For the completion experiment, HEK 293 suspension cells were transiently transfected with wild-type mPD-L1 mCherry. Three days post transfection transfected cells were counted and diluted to 1×10⁶ cells/mL. B7-1 hIgG1 fusion protein was added to 100,000 transfected cells at a final concentration of 5 nM dimer, in either the absence or presence of increasing concentrations of PD-1 mIgG2a protein (0.01-250 nM dimer). Parallel experiments were carried out in which purified mIgG2a isotype control was titrated at equivalent molar concentrations. Protein binding was carried out at 22° C. shaking at 900 rpm on a 96-well plate shaker for 1 hour. […] Cells were subsequently washed two more times with 1×PBS with 0.2% BSA. […] Competition data was normalized to 5 nM B7-1 binding in the absence of mPD-1 and plotted as a function of log [mPD-1]. Average data from three independent experiments was fit using a one-site competition model equation Y=min+(max−min)/(1+10^{x-log EC50}).
A) Cartoon depiction of the competition assay. […]

[12] = target: T11, wild-type mouse PD-L1 mCherry …; assay: cell microarray challenged with Fc fusion protein
[13] = target: T12, PD-L1 mutant R125D (mouse PD-L1-mCherry fusion) (mouse, UniProt Q9EP73 19-290); assay: microbead FACS binding assay: protein A microbeads loaded with Fc fusion, HEK 293 cells displaying the PD-L1-mCherry mutant
T12 construct: whole, on cells; not shown: C-terminal mCherry (Clontech N1 mCherry vector)
T12 sequence (Q9EP73 19-290 R125D): as the sequence (Q9EP73 19-290 L53R) above, with R35L, R107D counted along it
Protocol: as §1, §2

[14] = target: T13, PD-L1 mutant Y123A (mouse PD-L1-mCherry fusion) (mouse, UniProt Q9EP73 19-290); assay: as above
T13 construct: whole, on cells; not shown: C-terminal mCherry (Clontech N1 mCherry vector)
T13 sequence (Q9EP73 19-290 Y123A): as the sequence (Q9EP73 19-290 L53R) above, with R35L, Y105A counted along it
Protocol: as §1, §2

[15] = target: T14, PD-L1 mutant Y123R (mouse PD-L1-mCherry fusion) (mouse, UniProt Q9EP73 19-290); assay: as above
T14 construct: whole, on cells; not shown: C-terminal mCherry (Clontech N1 mCherry vector)
T14 sequence (Q9EP73 19-290 Y123R): as the sequence (Q9EP73 19-290 L53R) above, with R35L, Y105R counted along it
Protocol: as §1, §2

[16] = target: T15, PD-L1 mutant D122A (mouse PD-L1-mCherry fusion) (mouse, UniProt Q9EP73 19-290); assay: as above
T15 construct: whole, on cells; not shown: C-terminal mCherry (Clontech N1 mCherry vector)
T15 sequence (Q9EP73 19-290 D122A): as the sequence (Q9EP73 19-290 L53R) above, with R35L, D104A counted along it
Protocol: as §1, §2

[17] = target: T16, PD-L1 mutant K124A (mouse PD-L1-mCherry fusion) (mouse, UniProt Q9EP73 19-290); assay: as above
T16 construct: whole, on cells; not shown: C-terminal mCherry (Clontech N1 mCherry vector)
T16 sequence (Q9EP73 19-290 K124A): as the sequence (Q9EP73 19-290 L53R) above, with R35L, K106A counted along it
Protocol: as §1, §2

[18] = target: T17, PD-L1 mutant R125A (mouse PD-L1-mCherry fusion) (mouse, UniProt Q9EP73 19-290); assay: as above
T17 construct: whole, on cells; not shown: C-terminal mCherry (Clontech N1 mCherry vector)
T17 sequence (Q9EP73 19-290 R125A): as the sequence (Q9EP73 19-290 L53R) above, with R35L, R107A counted along it
Protocol: as §1, §2

[19] = target: T18, PD-L1 mutant K124D (mouse PD-L1-mCherry fusion) (mouse, UniProt Q9EP73 19-290); assay: as above
T18 construct: whole, on cells; not shown: C-terminal mCherry (Clontech N1 mCherry vector)
T18 sequence (Q9EP73 19-290 K124D): as the sequence (Q9EP73 19-290 L53R) above, with R35L, K106D counted along it
Protocol: as §1, §2

T1 sequence (Q9EP73 19-290 A121D): as the sequence (Q9EP73 19-290 L53R) above, with R35L, A103D counted along it

- binding result [1]: no binding
- binding result [2]: no binding
- binding result [3]: no binding
- binding result [4]: no binding
- binding result [5]: no binding
- binding result [6]: no binding
- binding result [7]: no binding
- binding result [8]: no binding
- binding result [9]: no binding
- binding result [10]: no binding
- EC50 [11]: 8.3 nM
B1: wild-type mPD-1 Fc (residues L25-Q167, mIgG2a-10×His) (Fc fusion, mouse, not shown: a dimerising Fc or GST)
chain (part 1 of 2): LEVPNGPWRSLTFYPAWLTVSEGANATFTCSLSNWSEDLMLNWNRLSPSNQTEKQAAFCNGLSQPVQDARFQIIQLPNRHDFHMNILDTRRNDSGIYLCGAISLHPKAKIEESPGAELVVTERILETSTRYPSPSPKPEGRFQ
chain (part 2 of 2): HHHHHHHHHH
notes: range 25-167; In the microbead assay it was loaded on protein A microbeads; also called PD-1 Fc-fusion; PD-1 Ig-fusion

- binding result [12]: binds
- binding result [1]: no binding
- binding result [13]: binds
- binding result [2]: no binding
- binding result [3]: no binding
- binding result [4]: no binding
- binding result [5]: no binding
- binding result [14]: binds
- binding result [15]: binds
- binding result [16]: binds
- binding result [6]: no binding
- binding result [7]: no binding
- binding result [17]: binds
- binding result [8]: no binding
- binding result [18]: binds
- binding result [19]: binds
- binding result [9]: no binding
- binding result [10]: no binding
B2: wild-type mB7-1 Fc (residues D37-K245, mIgG2a-10×His) (Fc fusion)
chain: DVDEQLSKSVKDKVLLPCRYNSPHEDESEDRIYWQKHDKVVLSVIAGKLKVWPEYKNRTLYDNTTYSLIILGLVLSDRGTYSCVVQKKERGTYEVKHLALVKLSIKADFSTPNITESGNPSADTKRITCFASGGFPKPRFSWLENGRELPGINTTISQDPESELYTISSQLDFNTTRNHTIKCLIKYGDAHVSEDFTWEKPPEDPPDSK
modifications: C-terminal mIgG2a Fc-10×His (dimerising carrier), not in the letters
notes: In the microbead assay it was loaded on protein A microbeads; also called B7-1 Fc-fusion; B7-1 Ig-fusion; not shown: the linker between ectodomain and Fc, the mouse IgG2a Fc and the 10xHis tag behind it

From patent US20190153065A1 (ALBERT EINSTEIN COLLEGE OF MEDICINE, published 2019)
